Laboratory results published in PMC3273814.

System: T1, Ms6564 (Mycobacterium smegmatis mc2 155), ORF:45299f77
T1 sequence: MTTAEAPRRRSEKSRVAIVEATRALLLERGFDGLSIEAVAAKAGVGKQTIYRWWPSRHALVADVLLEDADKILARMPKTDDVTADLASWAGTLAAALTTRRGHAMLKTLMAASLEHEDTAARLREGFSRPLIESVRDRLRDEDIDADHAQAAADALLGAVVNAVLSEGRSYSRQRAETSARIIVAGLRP
Assay: DNase I footprinting

Sequence: TTAAATCCGCTGGCCCCGATCACCAGTTTCGTCGCTGTCATAGGCCCTTGCGCTCGTGTCCTCGGGTCATAAACGAGACGGTACGTCTCGTCTTGTGGCAGAGTACGGGGTGTCACTTTTCGTGTAAAGGCCTGCGATGACCACCGCTGAAGCGCCCCGCCGGCGCAGTGAGAAGTCGCGGGTGGCCAT (double strand) [Ms6564p4 (p4-1 / p4-2)]
- binding: binds
